From paper PMC7697860 come the findings set out here.

In test [1] the target is PfPV1 with Strep-tag at the C-terminus (PfPV1-Strep) (Plasmodium falciparum 3D7). The experiment in a line: […] (pH 6.8), 200 mM NaCl, 0.5 mL/min.
Test [2] has the same target. Description: AUC.
For test [3] the target is unchanged. The experiment in a line: native gel or EMSA.
The target is the same in test [4]. The experiment in a line: negative-stain electron microscopy with 2D classification.

Values joined by “and” are separate entries in the source; they are usually repeats but may differ in a detail not shown here. Equal entries are not always repeated.

In the case of “PfPV1 with Strep-tag at the C-terminus (PfPV1-Strep) (natural protein)”, in test [1], the stoichiometry N is 4 and 3. Further, in test [2], the stoichiometry N is 4 and 3 and 2; the weight fraction w of the component assigned to the tetramer (A4, 222 kDa) was 24%; the weight fraction w of the component assigned to the tetramer (B3, 215 kDa) was 17.5%; the weight fraction w of the component assigned to the trimer (A3, 139 kDa) was 6.8%. In test [2], the weight fraction w of the component assigned to the trimer (B2, 141 kDa) stood at 48.1%. The substance also displayed a stoichiometry N in test [3] of 3. In test [4], this substance came in with a stoichiometry N of 4.
